Target: T1, GBP1^LG-MD (LG-MD region of guanylate-binding protein 1, residues 1-479) (human, UniProt P32455 1-479)
T1 construct: also called C-terminally truncated GBP1; source: E. coli BL21(DE3), purified (Ni-NTA, ULP1 cleavage, second Ni-NTA, Superdex 200); not shown: His6-SUMO, N-terminal, cleaved
T1 sequence: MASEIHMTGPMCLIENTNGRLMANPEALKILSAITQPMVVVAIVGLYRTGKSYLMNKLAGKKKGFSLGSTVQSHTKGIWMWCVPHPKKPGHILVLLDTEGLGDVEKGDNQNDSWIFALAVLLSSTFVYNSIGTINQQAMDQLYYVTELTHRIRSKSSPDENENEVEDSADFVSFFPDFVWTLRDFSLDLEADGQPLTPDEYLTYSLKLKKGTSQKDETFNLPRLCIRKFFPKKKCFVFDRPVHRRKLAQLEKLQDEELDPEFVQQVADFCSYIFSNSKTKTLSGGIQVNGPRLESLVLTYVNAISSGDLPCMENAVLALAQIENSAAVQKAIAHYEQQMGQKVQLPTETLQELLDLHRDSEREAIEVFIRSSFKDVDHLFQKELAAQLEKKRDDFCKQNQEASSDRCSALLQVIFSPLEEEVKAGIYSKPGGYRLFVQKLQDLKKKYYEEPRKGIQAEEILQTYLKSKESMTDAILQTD
Experiment: crystal structure; purified IpaH9.8^LRR and GBP1^LG-MD incubated overnight on ice at a 1.5:1 molar ratio, passed through Superdex 200 (25 mM Tris-HCl pH 8.0, 20 mM NaCl, 2 mM DTT), no nucleotide; crystals at 20°C in 1.6 M sodium/potassium phosphate pH 6.5; 3.6 Å
Conditions: both partners purified

B1: IpaH9.8^LRR (Leucine-rich repeat domain of IpaH9.8, residues 22-252) (domain or fragment)
chain: TYADYFSAWDKWEKQALPGEERDEAVSRLKECLINNSDELRLDRLNLSSLPDNLPAQITLLNVSYNQLTNLPELPVTLKKLYSASNKLSELPVLPPALESLQVQHNELENLPALPDSLLTMNISYNEIVSLPSLPQALKNLRATRNFLTELPAFSEGNNPVVREYFFDRNQISHIPESILNLRNECSIHISDNPLSSHALPALQRLTSSPDYHGPRIYFSMSDGQQNTLHR
notes: E3 ubiquitin ligase IpaH9.8, Shigella flexneri, LRR domain, residues 22-252; source: E. coli BL21(DE3), purified (Ni-NTA, ULP1 cleavage, second Ni-NTA, Superdex 200); not shown: His6-SUMO, N-terminal, cleaved
- binding result: binds
